Test results from patent USRE46585 (LABORATOIRE FRANCAIS DU FRACTIONNEMENT ET DES …, dated 2017).
Changes are numbered by the printed parent chain. Read-outs that look alike come from different tables or passages of the source.

B1: B4A_03 (other)
chain: CPPCPAPELLGGPSVFLFPPKPKDTLMISRTPEVTCVVVDVSHEDPEVKFNWYVDGVEVHNAKTKPWEEQYNSTYRVVSVLPVLHQDWLNGKEYKCKVSNKALPVPIEKTISKAKGQPREPQVYTLPPSRDELTKNQVSLTCLVKGFYPSDIAVEWESNGQPENNYKTTPPVLDSDGSFFLYSKLTVDKSRWQQGNVFSCSVMHEALHSHYTQKSLSLSPGK
notes: EU numbering
B2: T7A_92 (other)
chain: B1 chain with V39E, W67R, P82T, V105A, P171L, S190N
notes: EU numbering
B3: T4A_42 (other)
chain: B1 chain with C1G, W67R, P82T, N90D, V105A, Q137R, S209Y
notes: EU numbering
B4: L4A_28 (other)
chain: B1 chain with W67R, P82T, V105A, M203L, Q213R, P220S
notes: EU numbering
B5: T5A_74C (other)
chain: B1 chain with P3L, W67R, P82T, N90D, N136D, A153V, S209Y
notes: EU numbering
B6: S4A_05 (other)
chain: B1 chain with W67R, P82T, V105A, A153V, D176A, S209Y
notes: EU numbering
B7: T4A_48 (other)
chain: B1 chain with W67R, P82T, V83I, N90D, E157V, S209Y
notes: EU numbering
B8: C6A_12 (other)
chain: B1 chain with P5T, W67R, P82T, N90D, V105A, Q137E, S209Y
notes: EU numbering
B9: C6A_85 (other)
chain: B1 chain with W67R, V80A, P82T, N90D, N164K, S209Y
notes: EU numbering
B10: T5A_87 (other)
chain: B1 chain with W67R, P82T, N90D, Q137R, S209Y
notes: EU numbering
B11: B5A_25 (other)
chain: B1 chain with F18L, W67R, P82T, N90D, V105A, T186A
notes: EU numbering
B12: B5A_16 (other)
chain: B1 chain with S14A, W67R, S73G, P82T, N90D, V105A, Q122R, S209Y, S215R
notes: EU numbering
B13: T6A_85 (other)
chain: B1 chain with T25A, W67R, P82T, N90D, N100S, S209Y
notes: EU numbering
B14: T5A_57 (other)
chain: B1 chain with F16L, W67R, P82T, N90D, K167R, S209Y
notes: EU numbering
B15: C6A_78D (other)
chain: B1 chain with P3R, T31N, W67R, P82T, V105A, A153V, S209Y
notes: EU numbering
B16: T5A_74F (other)
chain: B1 chain with P3R, P5S, W67R, P82T, N90D, N136D, A153V, S209Y
notes: EU numbering
B17: C5A_39 (other)
chain: B1 chain with K65E, W67R, P82T, N90D, V105A, Q117R, E157V, S209Y
notes: EU numbering
B18: T5A_93 (other)
chain: B1 chain with W67R, V80A, P82T, N90D, P170A, S209Y
notes: EU numbering
B19: B6A_31 (other)
chain: B1 chain with W67R, P82T, V105A, S150G, M203L, H208P, S209N
notes: EU numbering
B20: T5A_74B (other)
chain: B1 chain with P5S, W67R, P82T, N90D, N136D, A153V, S209Y
notes: EU numbering
B21: T5A_55 (other)
chain: B1 chain with P5L, F16L, F18L, V39E, W67R, V105A, A153V, S209N
notes: EU numbering
B22: T5A_25 (other)
chain: B1 chain with C1G, V39E, W67R, P82T, V105A, Q122R, K145R, A153V
notes: EU numbering
B23: C3A_13 (other)
chain: B1 chain with C1G, W67R, P82T, N90D, S209Y
notes: EU numbering
B24: B5A_17 (other)
chain: B1 chain with W67R, P82T, N90D, V105A, Q137R, S209Y
notes: EU numbering
B25: T6A_75 (other)
chain: B1 chain with P5T, W67R, P82T, N90D, V105A, Q137R, S201T, S209Y
notes: EU numbering
B26: C5A_09 (other)
chain: B1 chain with F16L, V39E, W67R, V105A, A153V
notes: EU numbering
B27: T5A_45 (other)
chain: B1 chain with A6T, F16L, V39E, W67R, P82T, V105A, A153T, V172M
notes: EU numbering
B28: C6A_78F (other)
chain: B1 chain with P3R, P5S, T31N, W67R, P82T, V105A, A153V, S209Y
notes: EU numbering
B29: C6A_48 (other)
chain: B1 chain with P5T, V39E, W67R, P82T, V105A, A153V
notes: EU numbering
B30: S3A_06 (other)
chain: B1 chain with P5T, A6T, W67R, P82T, V105A, A153V, S209N
notes: EU numbering
B31: L6B_31 (other)
chain: B1 chain with P5T, W67R, V80A, P82A, V105A, A153V, L173P
notes: EU numbering
B32: B6A_41 (other)
chain: B1 chain with W67R, P82T, V105A, S209Y, Q213R, K222E
notes: EU numbering
B33: L3A_39 (other)
chain: B1 chain with W67R, P82T, V105A, S150G, P170S
notes: EU numbering
B34: C5A_65 (other)
chain: B1 chain with P5T, W67R, P82T, N90D, Q161K, S209Y
notes: EU numbering
B35: B6A_20 (other)
chain: B1 chain with W67R, P82T, K95T, V105A, S209Y, K214R, K222E
notes: EU numbering
B36: C8A_15 (other)
chain: B1 chain with W67R, P82T, N90D, A102V, V172M, S209Y
notes: EU numbering
B37: T5A_74D (other)
chain: B1 chain with P3R, W67R, P82T, N90D, N136D, A153V, S209Y
notes: EU numbering
B38: T4A_37 (other)
chain: B1 chain with P5S, V39E, W67R, P82T, V105A, P127S, A153V
notes: EU numbering

Tests used:
FcRn-p3 fusion protein [1] = target: T1, FcRn-p3 fusion protein (human, UniProt P55899 24-297; P61769 21-119); test: phage ELISA pH6
T1 construct: baculovirus expressed; coated on ELISA wells; not shown: amino terminal part of bacteriophage p3 protein and CVDE protein

FcRn-p3 fusion protein [2] = target: T1, FcRn-p3 fusion protein; test: phage ELISA pH6; remark: listed apart in the source
FcRn-p3 fusion protein [3] = target: T1, FcRn-p3 fusion protein; test: phage ELISA pH6; remark: listed apart in the source
FcRn-p3 fusion protein [4] = target: T1, FcRn-p3 fusion protein; test: phage ELISA pH6 (est.)
FcRn-p3 fusion protein [5] = target: T1, FcRn-p3 fusion protein; test: phage ELISA pH6 (est.); remark: listed apart in the source

T1 sequence (P55899 24-297, chain 1 of 2): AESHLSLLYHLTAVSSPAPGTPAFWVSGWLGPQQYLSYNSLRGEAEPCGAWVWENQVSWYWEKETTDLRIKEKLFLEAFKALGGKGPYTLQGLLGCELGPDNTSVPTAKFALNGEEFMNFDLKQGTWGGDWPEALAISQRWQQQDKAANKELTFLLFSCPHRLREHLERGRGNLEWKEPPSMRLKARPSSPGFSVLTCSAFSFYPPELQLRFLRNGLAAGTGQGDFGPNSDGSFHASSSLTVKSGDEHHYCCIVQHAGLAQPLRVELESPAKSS
T1 sequence (P61769 21-119, chain 2 of 2): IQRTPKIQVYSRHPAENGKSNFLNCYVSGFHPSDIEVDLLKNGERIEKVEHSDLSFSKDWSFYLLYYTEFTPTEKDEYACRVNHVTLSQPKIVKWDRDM

Row | Binder | Ratio/Fc-WT (FcRn-p3 fusion protein [1]) [fold] | Ratio/Fc-H (FcRn-p3 fusion protein [2]) [fold] | Ratio/Fc-H (FcRn-p3 fusion protein [3]) [fold] | Ratio/FWT (FcRn-p3 fusion protein [4]) [fold] | Ratio/Fc-WT (FcRn-p3 fusion protein [5]) [fold]
1 | B1 | 3.7 | – | – | – | –
2 | B2 | – | 6.7 | 6.7 | 21.4 | 21.4
3 | B3 | – | 4.6 | 4.6 | 14.7 | 14.7
4 | B4 | 5.2 | – | – | – | –
5 | B5 | – | 7.5 | – | – | 24
6 | B6 | 3.7 | – | – | – | –
7 | B7 | – | 4.5 | 4.5 | 14.5 | 14.5
8 | B8 | – | 4.6 | 4.6 | 14.9 | 14.9
9 | B9 | – | 7.4 | 7.4 | 23.8 | 23.8
10 | B10 | – | 7.8 | 7.8 | 25 | 25
11 | B11 | 3.6 | – | – | – | –
12 | B12 | 5.6 | – | – | – | –
13 | B13 | – | 5.1 | 5.1 | 16.3 | 16.3
14 | B14 | – | 4.9 | 4.9 | 15.8 | 15.8
15 | B15 | – | 28.3 | – | – | 90.5
16 | B16 | – | 16.8 | – | – | 53.8
17 | B17 | – | 5 | 5 | 15.9 | 15.9
18 | B18 | – | 8 | 8 | 25.7 | 25.7
19 | B19 | 5 | – | – | – | –

Row | Binder | Ratio/Fc-WT (FcRn-p3 fusion protein [1]) [fold] | Ratio/Fc-H (FcRn-p3 fusion protein [2]) [fold] | Ratio/Fc-H (FcRn-p3 fusion protein [3]) [fold] | Ratio/FWT (FcRn-p3 fusion protein [4]) [fold] | Ratio/Fc-WT (FcRn-p3 fusion protein [5]) [fold]
20 | B20 | – | 5.9 | – | – | 18.8
21 | B21 | – | 5.6 | 5.6 | 17.9 | 17.9
22 | B22 | – | 4.6 | 4.6 | 14.7 | 14.7
23 | B23 | – | 5.6 | 5.6 | 17.9 | 17.9
24 | B24 | 4.6 | – | – | – | –
25 | B25 | – | 5.7 | 5.7 | 18.3 | 18.3
26 | B26 | – | 4.8 | 4.8 | 15.2 | 15.2
27 | B27 | – | 4.5 | 4.5 | 14.3 | 14.3
28 | B28 | – | 9.4 | – | – | 30.1
29 | B29 | – | 4.5 | 4.5 | 14.4 | 14.4
30 | B30 | 3.6 | – | – | – | –
31 | B31 | 6.3 | – | – | – | –
32 | B32 | 4.3 | – | – | – | –
33 | B33 | 3.2 | – | – | – | –
34 | B34 | – | 4.2 | 4.2 | 13.5 | 13.5
35 | B35 | 3.7 | – | – | – | –
36 | B36 | – | 7.4 | 7.4 | 23.7 | 23.7
37 | B37 | – | 26 | – | – | 83.1
38 | B38 | – | 4 | 4 | 12.8 | 12.8
